Results taken from the nanobody polyreactivity screen of Harvey et al. (2022).

Experiment: yeast display, Sf9 membrane polyspecificity reagent, FACS + sequencing; frameworks hold sequencing errors
Summary of the method: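 Galactose-induced (36–48 hours) yeast carrying a synthetic nanobody display library were exposed to 10% biotinylated, detergent-solubilized Sf9 membrane reagent at 4 °C for 1 hour. FACS followed streptavidin microbead enrichment, using low and high (top ~1%) gates for expression (anti-HA) and reagent binding (streptavidin). Colony PCR, MiSeq 2 × 250 sequencing and CDR-length filtering followed. Labels for polyreactivity reflect the gate of origin.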

| Sequence | polyreactivity (PSR sort gate) |
| --- | --- |
| QVQLVESGGGLVQAGGSLRLTCAASGYIFPYNVMGWYRQAPGKERELVAAITWRVVRTYYADSVKGRFTISRDNAKNTVYLQMNSLKPEDTAVYYCAALSRQSGDYWGQGTQVTVSS | high polyreactivity |
| QVQLVESGGGLVQAGGSLRLTCAASGYIFYTYAMGWYRQAPGKERELVAGITGSGGSTYYADSVKGRFTISRDNAKNTVYLQMNSLKPEDTAVYYCAKDIYQIGYRRYDSWGQGTQVTVSS | low polyreactivity |
| QVQLVESGGGLVQAGGSLRLTCAASGYTFRGYAMGWYRQAPGKEREFVAAINWSDGSTYYADSVKGRFTISRDNAKNTVYLQMNSLKPEDTAVYYCNADQYYRVPDNYWGQGTQVTVSS | low polyreactivity |
| QVQLVESGGGLVQAGGSLRLTCAASGYTFWLNGMGWYRHAPGKERELVAAISSSGGSTYYADSVKGRFTISRDNAKNTVYLQMNSLKPEDTAVYDCAVDAYWRHWYYPYESHHDYWGQGTQVTVST | low polyreactivity |
| QVQLVESGGGLVQAGGSLRLTCAASGYTFYYAMGWYRQAPGKERELVAAITRGGSTYYADSVKGRFTISRDNAKNTVYLQMNSLKPEDTAVYYCATEYHAHYASRALYGYDHWGQGTQVTVSS | low polyreactivity |
| QVQLVESGGGLVQAGGSLRLTCAASVRTCYSYALGWYRQEPGKEMELVASISSGGGTNYADSVKGRFTISRYNAKNTVFLQMNSLKPEDTAVYYFAAYSSWGGFDYWGQGTQLTVSS | low polyreactivity |
| QVQLVESGGGLVQAGGSLRLTSADSGSTFSFSAMRWYRQAPGKERELVAAIRSSVGSTYYADSVKGRFTISRDNAKNTVYLQMNSLKPEDTAVYNCAATTHWFRSYREFYYWGQGTQVTVSS | high polyreactivity |
| QVQLVESGGGLVQAGGSLRLTWEAYGFTFKYYPMGWYRQAPGKEWELVADITRSGGSTYYADSVKGRFTISRDNAKITVYLEMYILKPEDTAVYYCAVDPVRYQYSYDYWCQGTQVTVSS | high polyreactivity |
| QVQLVESGGGLVQAGGSLRVICAASGSTFLENAMGWYRQAPGKERELVAAISRSGARTYYADSVKGRFTISRDNAKNTVYLQMNSLKPEDTAVYYCAASHGKNKASGPMDYWGQGTQVTVSS | high polyreactivity |
| QVQLVESGGGLVQAGGSLRVSCAASGFIFLYYAMGWYRQAPGKERELVADISRGADTKYADSVKGRFTISRDNAKNTVYLQMNSLKPEDTAVYYCATDITTFWFPYPGVELGYWGQGTQVTVSS | low polyreactivity |
| QVQLVESGGGLVQAGGSLRVSCAASGFIFTGYTMGWYRQAPGKERELLAAVSYRGGSTYYADSVKGRFTISRDNAKNTVYLQMNSLKPEDTAVNYCNAVWSNFRLGYDYWGQGTQVTVSS | high polyreactivity |
| QVQLVESGGGLVQAGGSLRVSCAASGFTFGPYDMGGSRQAPGKERELVAVIIGGDSTNYADSVKGRFTISRDNAKNTVYLQMNRLKPEDTAVYYCAADYIDRVGWMDYWGQGTQVTVSS | low polyreactivity |
| QVQLVESGGGLVQAGGSLRVSCAASGFTFYVNAMGRYRQAPGKERELVAVISPSGGRTYYADSVKGRFTISRDNAKNTVYLQMNSLKPEDTAVYYCAAESGGYHWSTPYFDWLYYYWGQGTQVTVSS | low polyreactivity |
| QVQLVESGGGLVQAGGSLRVSCAASGIIFVVYDMGWYRQAPGKERELVAAINWSGGSTYYADSVKGRFTISRDNAKNTVYLQMNSLKPEDTAVYYCAAESFSDGSPYNYWGQGTQVTVSS | low polyreactivity |
| QVQLVESGGGLVQAGGSLRVSCAASGRIFDSYAMGWSRQAPGKERELVAVISNNDGTTYYADSVKGRFTISRDNAKTTVYLQMNSLKPEDTAVYYCNAVYSSGVDGSEGFDYWGQGTQVTVSS | low polyreactivity |
| QVQLVESGGGLVQAGGSLRVSCAASGRTFGVYTMGWYRLAPGKERELVAAITWGGGRTYYADSVKGRFTISRDNAKNTVYLHMNSLKPEDTAVYYRAARVRGQGSYHFGYWGQGTQVTVSS | high polyreactivity |
| QVQLVESGGGLVQAGGSLRVSCAASGRTFPYYDMGWYRQAPGKEREFVAAITWRGGSTYYADSVKGRFTISRDNAKNTVYLQMNSLKPEDSAVYYCATDSLRLYGGKRDLYYWGQGTQVTVSS | low polyreactivity |
| QVQLVESGGGLVQAGGSLRVSCAASGRTLRSYAMGWYRQAPGKERELVAAISRSGGSTYYADSVKGRFTISRDNAKNPVYLQMNSLKPEDTSVYYCATRYLRSLDYWGQGTQVTVSS | high polyreactivity |
| QVQLVESGGGLVQAGGSLRVSCAASGSIFHENAMGWYRPAPGKEWELVAAIDQTGSTYADSVKGRFTISRDNAKNTVYLQMNSLKPEDTAVYYCAKGDVSLDYPSLEFDYWGQGTQVTVSS | low polyreactivity |
| QVQLVESGGGLVQAGGSLRVSCAASGSIFHFYTMGWYRQAPGKERELVAAISSTGSTNYADSVKGRFTISRDNAKNTVYLQMNSLKPEDTAVYYCAAVGTYLAGYQFDYWGQGTQVTVSS | low polyreactivity |
| QVQLVESGGGLVQAGGSLRVSCAASGSIFIVYAMGWYRQAPGKDRELVATISSGGSTNYAVSVKGRFTISRDNAKNTVYVQMNTLKPEATAVYYCAAESYWGSGLVPGYDYWGQGTQGTVSS | low polyreactivity |
| QVQLVESGGGLVQAGGSLRVSCAASGSIFSLYTMGWYRQAPGKERELVAAISGSGGRTYYADSVKGRFTISRDNAKNTVYLQMNSLKPEDTAVYYCAADTRSYTYYYWGQGTQVTVSS | high polyreactivity |

| Sequence | polyreactivity (PSR sort gate) |
| --- | --- |
| QVQLVESGGGLVQAGGSLRVSCAASGSIFSYYDMGWYRPAPGKERELVAAITDGGDRTYYADSVKGRFTISRDNAKNTVYLQMNSLKPEHTAVYYCAAVVSVNMYWGQGTQVTVSS | low polyreactivity |
| QVQLVESGGGLVQAGGSLRVSCAAYGRTFYRNTMGWYRQAPGKEREFVAAISATAGRTYYADSVKGRFTFSRDNAKNTVYLQKNSLKPEDTAVYYCAAVPLRNRWPNSWPALDYWGQGTQVTVSS | high polyreactivity |
| QVQLVESGGGLVQAGGSLSLICAASGFIFDVYAMGWYRQAPGKERELVAAISRSGGSTHYADSVKGRFTISRDNAKNTVYLQMNSLKPEDTAVYYFATRIRVGYAKYDYWGQGTQVTVSS | high polyreactivity |
| QVQLVESGGGLVQAGGSLSLICAASGFTFYIYAMGWSRQAPRKERELVAAISSSGGSTYYADSVKGRFTISRDNAKITVYLQMNSLKPEDTAVYYCARRLLRGSDWGQGTQVTVSS | high polyreactivity |
| QVQLVESGGGLVQAGGSLSLICAASGGTFERYAMGWYRQAPGKERELVAAISRSGGRTYYADSVKGRFTISRDNAKNSVYLQMNSLKPEDTAVYYCNSLGRYRMDYWGQGTQVTVSS | high polyreactivity |
| QVQLVESGGGLVQAGGSLSLICAASGLIFKYNDMGWYRQAPGKERELVAAISTSGGSTYYADSVKGRFTISRDNAKNTVYLQMNSLKPEDTAVYYCNARRQRNKSYNYWGQGTQVTVSS | high polyreactivity |
| QVQLVESGGGLVQAGGSLSLICAASGSTFRYYTMGWYRQAPGKERELVAVISRSDDSTYADSVKGRFTISRDNAKNTVYLQMNSLKPVDTAVYYCAAAGGLFFRSTVPRGDFWGQGTQVTVSS | low polyreactivity |
| QVQLVESGGGLVQAGGSLSLICAASRFTFDSYAMGWYRQAPGKERELVAAINYSGGRTDYADSVKGRFTISRDNAKNTVYLQMNSLKPVDTAVYYCAAKGVRWGQGTQVTVSS | high polyreactivity |
| QVQLVESGGGLVQAGGSLSLICDASRFTFGFYAMGWYRQAPGKERELHAAISTTVGSTYYADSVKGRFTISRDNAKNTVYLQMNSLKPEDTAVFYCAAEYTGYINYYIYEYWRQGTQVTVSS | low polyreactivity |
| QVQLVESGGGLVQAGGSLSLMCAASGGIFPRYTRGWYRQAPGKEREMVASISRSGASTYYADSVKGRFTISRDNAKNTVYLQMNSLKTEDTAVYYCNARFVTGYWYIWENYWGQGTQVTVSS | high polyreactivity |
| QVQLVESGGGLVQAGGSLSLRCAASGRTVGSYAMVWYRQAPGKERELVAVINGDGSTYYADSVKGRFTISRDNAKNTVYFQMNSLKPVDTAVYYCNNVSFYLGTRRVSLKHYYWGQGTQVTLSS | low polyreactivity |
| QVQLVESGGGLVQAGGSLSLRCASSGSTFAYYAMGWYRQAPGKERELVAGNNWTGGSTYYADSVKGRFTISRDNAKNTVYLQMNSLKPEDTAVYYCAVTYPYGYEYDHWGQGTQVTVSS | low polyreactivity |
| QVQLVESGGGLVQAGGSLSLSCAASGFIFLASAMGWYRQAPGKERELVAAISSGSSTSYADSLKGRFTISRDNAKNTVYLQMNSLKPEDTAVYYCNAVPSFANLTWESYDYWGQGTQVTVSS | low polyreactivity |
| QVQLVESGGGLVQAGGSLSLSCAASGFTFEKNAMGWYRQAPGKERELVAAITSGGSTYYADSVKGRFTISRDNAKNTVYLQMNSLKPEDTAVYYCNAYYTYRFNYWGQGTQVTVSS | high polyreactivity |
| QVQLVESGGGLVQAGGSLSLSCAASGFTIYYYAMGWYRQAPGKERELVASITSGGSTYYADSVKGRFTISRDNAKNTVYLQMNSLKPEDTAVYYCAKTRFHSKEGDYWGQGTQVTVSS | low polyreactivity |
| QVQLVESGGGLVQAGGSLSLSCAASGFTLRFYTMGWYRQAPGKERELVADITWSGASTYYADSVKGRFTISRDNAKNTVYLQMKSLKPEDTAVYYCNAEDRYWSYSVGAPYNYWGQGTQVTVSS | low polyreactivity |
| QVQLVESGGGLVQAGGSLSLSCAASGIIFGRNALGWYRQAPGKEREMVAGITRRGARTYYADSVKGRFTISRDNAKNTVDLQMNSLKPEDTAVYYCATYSVQTDYGRGDYWGQGTQVTVSS | high polyreactivity |
| QVQLVESGGGLVQAGGSLSLSCAASGITFEWYAMGWYRQAPGKERELVAAISTSGGSTYYADSVKGRFTISRDNEKNTVYLQMNSLKPEDTEVYYCNTVSYGYSSKLYDYWGHGTQVTVSS | high polyreactivity |
| QVQLVESGGGLVQAGGSLSLSCAASGITFSGNAMGWYRQAPGKERELVAAITWRGDNTYYADSVKGRFTISRDNAKNTVYLQMNSLKPEDTAVYYCAAKSPLFGLTSYPGPDDSWGQGTQVTVSS | low polyreactivity |
| QVQLVESGGGLVQAGGSLSLSCAASGLTFSWYTMGWYRPAPGKERELVAAISWSGVSTYYADSVMGRFTISRDNAKNTVYLQMNSLKPEDTAVYYCAAAKTGRGRGTTGYGYWGQGTQVTVSS | high polyreactivity |
| QVQLVESGGGLVQAGGSLSLSCAASGNTFWGYAMGWYRQAPGKEREFVARINWSGGRTYYAESVKGRFTISRDNAKNTVYLQMNSLKPEDTAVYYCAATSLIYGYRTYDYWGQGTQVTVSS | high polyreactivity |
